According to patent publication US10501502B2, “Allophycocyanin alpha-subunit evolved labeling proteins (smURFPs)” (The Regents of the University of California, priority 2016, dated 2019):
Residue numbers refer to the chain shown, from its start.

B1: R3-2 + PCB: evolved APCα FP, SEQ ID NO: 4, with PCB (protein)
chain: MKTGEQRVKIATLLSENEKKIVDKASQDLWRRRPDFIAPGGIAFGQRERALCLRDYGWYLRLITFCLLAGDKDPIESIGLIGIREMYNSLGVPVPGMMESIRCLKEASLSLLDEEDAKETAPYFDYIIQAMS
modifications: phycocyanobilin chromophore; smRUFP Variant Polypeptide
B2: R4-1: evolved APCα FP, SEQ ID NO: 5, with BV (protein)
chain: B1 chain with G45S, G57R, R61H, Q129K
modifications: biliverdin chromophore; smRUFP Variant Polypeptide
B3: R7-7: evolved APCα FP, SEQ ID NO: 8, with BV (protein)
chain: B1 chain with G4C, E18K, R33H, F36L, G45S, R61H, D73G, Q129K, M131I
modifications: biliverdin chromophore; smRUFP Variant Polypeptide
B4: R8-9: evolved APCα FP, SEQ ID NO: 10, with BV (protein)
chain: B1 chain with G4C, K9N, E18K, F36L, G45S, E48D, R61H, D73G, G96D, Q129K
modifications: biliverdin chromophore; smRUFP Variant Polypeptide
B5: R8-8: evolved APCα FP, SEQ ID NO: 9, with BV (protein)
chain: MKTCEQRVKIATLLSENKKKIVDKASQDLWRRHPDLIAPGGIAFSQRDRALCLRDYGWYLHLITFCLLAGDKGPIESIGLIGIREMYNSLGVPVPAMMESIRCLKEASLSLLDEEDANETAPYFDYIIKAMS
modifications: biliverdin chromophore; smRUFP Variant Polypeptide
B6: R11-2: evolved APCα FP, SEQ ID NO: 12, with BV (protein)
chain: B5 chain with K9N, S15T, G82S, D113E
modifications: biliverdin chromophore; smRUFP Variant Polypeptide
B7: R10-10: evolved APCα FP, SEQ ID NO: 11, with BV (protein)
chain: B5 chain with K9N, S15T
modifications: biliverdin chromophore; smRUFP Variant Polypeptide

Legend:
[1] = In vitro photobleaching of bubbles of purified FP or Cy5 in mineral oil; type: physicochemical
Procedure: (§1) EX and EM spectra were obtained using SPEX Fluorolog fluorometer (Horiba). Absorbance spectra were obtained using UV-VIS Spectrophotometer Cary Eclipse (Varian) or UV-2700 (Shimadzu). Quantum yield was determined relative to Cy5. Incorporation rates of BV on 0.5 μM smURFP was performed by addition of smURFP to PBS alone or with 20% fetal bovine serum (FBS) and mixed by pipetting in a quartz cuvette. Chromophore was added last, mixed by pipetting, and fluorescence was recorded using SPEX Fluorolog fluorometer (Horiba). Photobleaching was characterized on bubbles of purified FP or Cy5 within mineral oil using light from a 150 W xenon arc lamp with 100% light through EX/EM=628(40)/680(30) nm for smURFP, TDsmURFP, and Cy5 or EX/EM=665 (45)/725 (50) nm for IFP 1.4 focused with a 40×, 1.2 numerical aperture C-Apochromat oil-immersion lens on a Zeiss Axiovert 200M inverted microscope. Photobleaching times were normalized to reflect an initial illumination intensity producing 1,000 photons per fluorescent molecule per second as previously described^37.

[2] = FP purification and fluorescence characterization in vitro (spectra, extinction coefficient, quantum yield); type: physicochemical
Procedure: FP genes were expressed on a pBAD vector (Life Technologies) with a polyhistidine tag on the C terminus, cells were lysed with B-PER (Thermo Scientific), and purified using Ni-NTA (Qiagen) puri-fication. PCB (HO-1+PcyA) and BV (HO-1) incorporation in Escherichia coli was performed simultaneously during constitu-tively active FP expression. Extinction coefficient was determined by PCB or BV absorbance as described35,36 (Table 3, smURFP+BV and TDsmURFP+BV, and Table 2) or calculated for the apoproteins by determining the protein concentration by the BCA protein assay (Pierce), and a specific chromo-phore concentration was added (specified in the Purification of FP lacking chromophore and in vitro chromophore incorporation section) to get 1 and 2 chromophore species (Table 5, not including (Escherichia coli)). When FP chromophore (PCB or BV) was expressed in Escherichia coli, the PCB and BV Q band had absorbance that overlapped with detection of BCA or Bradford assay of 562 nm and 592 nm, respectively. We used the previously published protocols35,36, where there was no change of the BV absorbance at 390 nm when free in solution or attached to the FP. smURFP+BV denaturation with 1 M urea caused no change in the BV absorbance at 390 nm, but the Q band was reduced ˜20-fold. Therefore, the extinction coefficient of BV at 390 nm was used to calculate the concentration of holoprotein (FP+PCB or BV) concentration.
as §1
HO-1 was removed by digesting the pBAD vector (Life Technology) with MscI and PmeI (NEB). smURFP and TDsmURFP were expressed and purified as described above. No chromophore was present on smURFP and TDsmURFP (confirmed by UV, fluorescence imaging, and MS). For predominant fluorescent species+2 chromophores, a ten-fold excess of chromophore was added to smURFP and TDsmURFP. For predominant fluorescent species+1 chromophore, a quarter concentration of chromophore was added to smURFP and TDsmURFP. Chromophore was added in PBS+10% FBS at 37° C. overnight. smURFP+chromophore and TDsmURFP+chromophore were purified using NiNTA (Qiagen) to remove excess or noncovalently attached chromophore.

Escherichia coli = test: Fluorescence of FPs expressed in Escherichia coli; type: cell-based; conditions: for fold brighter than R4-1: expressed in E. coli with HO-1
Procedure: TeAPCα gene (codons optimized for Escherichia coli) was made by GenScript. Mutations were placed by random mutagenesis using GeneMorphII Random Mutagenesis Kit (Agilent Technologies). Screens for mutants that fluoresce with PCB or BV were performed by subcloning into a pBAD vector (Life Technologies) that expressed cyanobacteria Synechocystis HO-1 and Synechocystis PcyA genes for PCB production and Synechocystis HO-1 only for BV production, as previously described^34. Libraries were expressed in TOP 10 Electrocompetent Escherichia coli cells (Life Technologies) with addition of 0.2% arabinose to LB agar plates (FPs were constitutively expressed in Escherichia coli). Fluorescence was imaged on plates using a BioSpectrum AC Imaging System (UVP) with EX/EM=628(40)/690(50) nm for FPs+PCB, EX/EM=685(40)/710LP nm for rounds 4 and 5 FPs+BV, and EX/EM=650(13)/690(50) nm for Cy5-like FPs+BV (rounds 6-12). At round 6, 5-10 of the brightest colonies on each plate were combined in LB+0.2% arabinose, grown ˜18 h, mixture of plasmid DNA was purified, and TOP10 cells were transformed and plated on LB agar plates+0.2% arabinose. Fluorescence was screened on plates (as described above), 10-20 of the brightest colonies were screened in liquid culture fluorescence (FIG. 7a-e), plasmid DNA was purified, and DNA was sequenced. The plasmid DNA of 2-3 of the brightest FPs was chosen for mutagenesis for the subsequent round. When choosing DNA for subsequent mutagenesis rounds, genes with increased and/or novel silent DNA mutations were chosen over other DNA that had the same DNA and/or protein sequence of the previous round. Site-specific mutagenesis was performed using QuikChange Lightning Mutagenesis Kit (Agilent Technologies) to create smURFP (C4S mutation) and smURFP C52S.

[3] = Native PAGE quaternary structure / stoichiometry; type: physicochemical
Procedure: Native PAGE was run using NativePAGE Novex Bis-Tris Gel System (Life Technologies) on Native PAGE 4-16% Bis-Tris protein gels (Life Technologies). SDS-denaturing PAGE was run using NuPAGE MOPS SDS running buffer (Life Technologies) and NuPAGE Novex 4-12% Bis-Tris gels (Life Technologies). Precision Plus Protein Dual Color Standards (Bio-Rad) were used as an MW ladder. Zinc blot was performed after running the SDS-PAGE gel using the described method^44. Fluorescence was imaged using a BioSpectrum AC Imaging System (UVP) with EX/EM=535(45)/605(70) nm for tdTomato, EX/EM=650(13)/690(50) nm for smURFP and TDsmURFP, EX/EM=685(40)/710LP nm for IFP1.4 and BV+zinc.

Row | Molecule | in vitro photobleaching t50% ([1]; excitation intensity yielding 1,000 photons per s) | In vitro photostability t50% ([1]; time to bleach 50% from an initial emission rate of 1,000 photons per s) | Emission Maximum ([2]; Table 5) | Excitation Maximum ([2]; Table 5) | Extinction Coefficient ([2]; Table 5) | Quantum Yield ([2]; Table 5) | molecular brightness relative to eGFP ([2]; Table 5) | fluorescence when expressed in E. coli (qualitative) (Escherichia coli) | extinction coefficient (EC) [2] | quantum yield (QY) [2] | Molecular Brightnes Relative to smURFP ([2]; Table 4) | Emission Maximum ([2]; evolved APCα FPs, Table 4) | Excitation Maximum ([2]; evolved APCα FPs, Table 4) | Extinction Coefficient ([2]; evolved APCα FPs, Table 4) | Quantum Yield ([2]; evolved APCα FPs, Table 4) | quaternary structure on native gel [3] | fold brighter than R4-1 (Escherichia coli)
1 | Cy5 [reference compound] | 22 s | 22 s | 670 nm | 649 nm | 250,000 ^ m^−1cm^−1/chromophore | 25% | 186% |  |  |  |  |  |  |  |  |  | 
2 | B1 |  |  |  |  |  |  |  | lacked fluorescence with BV | 74,000 M^−1cm^−1 | 13% | 30% | 648 nm | 620 nm | 74,000 M^−1 cm^−1 | 13% |  | 
3 | B2 |  |  |  |  |  |  |  |  | 93,000 M^−1cm^−1 | 9.0% | 26% | 674 nm | 647 nm | 93,000 M^−1 cm^−1 | 9.0% | tetramer | 
4 | B3 |  |  |  |  |  |  |  |  | 250,000 M^−1cm^−1 | 16% | 123% | 676 nm | 648 nm | 250,000 M^−1 cm^−1 | 16% |  | 1.3 fold
5 | B4 |  |  |  |  |  |  |  |  | 175,000 M^−1cm^−1 | 12% | 65% | 672 nm | 644 nm | 175,000 M^−1 cm^−1 | 12% |  | 5.7 fold
6 | B5 |  |  |  |  |  |  |  |  | 260,000 M^−1cm^−1 | 13% | 104% | 672 nm | 648 nm | 260,000 M^−1 cm^−1 | 13% |  | 5.8 fold
7 | B6 |  |  |  |  |  |  |  | slightly more fluorescent than R10-10 |  |  | 70% | 672 nm | 642 nm | 190,000 M^−1 cm^−1 | 12% |  | 
8 | B7 |  |  |  |  |  |  |  |  | 200,000 M^−1cm^−1 | 15% | 93% | 672 nm | 646 nm | 200,000 M^−1 cm^−1 | 15% | homodimer | 8.3 fold
